{"source": "patent US20210107983A1", "about": "(Boehringer Ingelheim, published 2021)", "key": {"[1]": {"target": "T1, Cyno B7H6-His (cynomolgus monkey)", "T1 construct": "also called CyB7H6; cyB7-H6", "T1 chain": "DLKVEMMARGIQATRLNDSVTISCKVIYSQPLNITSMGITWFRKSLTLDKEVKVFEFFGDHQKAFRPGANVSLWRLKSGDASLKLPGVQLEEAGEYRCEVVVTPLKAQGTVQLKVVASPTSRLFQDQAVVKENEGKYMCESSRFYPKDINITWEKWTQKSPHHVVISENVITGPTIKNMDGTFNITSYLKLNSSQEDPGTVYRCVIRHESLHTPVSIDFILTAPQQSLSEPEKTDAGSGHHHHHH", "experiment": "ratio of SPR KDs cyno/human", "experimental": "(§1) About 700 RU of the B7H6/CD3 binding protein was captured on flow cell 2 of the Protein A/G surface for 60 s at a flow rate of 10 μL/min. The analytes HuB7H6, CyB7H6 and HuB7H1 were injected across both flow cells over captured B7H6/CD3 binding protein for 300 s at a flow rate of 30 μL/min with a dissociation of 1200 s. The concentrations of HuB7H6 and CyB7H6 were 0 nM, 6.25 nM, 12.5 nM, 25 nM, 50 nM and 100 nM. The concentrations of HuB7H1 were 0 nM and 1 μM. The surface was regenerated by injecting 10 mM glycine-HCl, pH 1.5 for 20 s at a flow rate of 30 μL/min across both flow cells.\n(§2) The reference flow cell 1 (interactions with sensor surface) and blank (HBS-EP+ or 0 nM analyte) were subtracted from the raw data.\n(§3) The B7H6/CD3 binding protein analyte was injected horizontally over the immobilized surface for 300 s at a flow rate of 30 μL/min with a dissociation of 600 s. The concentrations of the B7H6/CD3 binding protein used were 0 nM, 1.2 nM, 3.7 nM, 11.1 nM, 33.3 nM and 100 nM."}, "[2]": {"target": "T2, chicken egg white lysozyme (chicken, UniProt P00698 19-147)", "T2 construct": "unrelated positively charged protein, amine-coupled to the chip; also called Lysozyme (positive)", "T2 sequence (P00698 19-147)": "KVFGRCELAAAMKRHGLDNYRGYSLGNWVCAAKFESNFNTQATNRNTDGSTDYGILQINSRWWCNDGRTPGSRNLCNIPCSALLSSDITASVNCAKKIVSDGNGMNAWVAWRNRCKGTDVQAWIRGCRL", "experiment": "SPR, 1 µM binder over immobilized lysozyme", "experimental": "(§4) The experiment was performed on a Biacore® T200 SPR system (GE Healthcare Life Sciences). The dilution, surface preparation, and binding experiments were performed at 25° C. in 1×HBS-EP buffer prepared from 10×HBS-EP. The flow rate for both the immobilization protocol and binding experiment was at 5 μL/min.\n(§5) To prepare the surface for the non-specific binding experiment, chicken egg white lysozyme and trypsin inhibitor from Glycine max soybean were coupled manually to a Biacore® series S CM5 sensor chip (GE Healthcare sciences) with the surface density of 3000-5000 RU using the amine coupling kit according to the manufacture instructions. Samples were prepared at 1 μM in 1×HBS-EP buffer. The samples were injected over activated surfaces with a 10 min association and 15 min dissociation. The data was collected using Biacore® T200 Control Software version 2.0.1 and analyzed using Biacore® T200 Evaluation Software version 3.0 (GE Healthcare Life Sciences)."}, "[3]": {"target": "T3, trypsin inhibitor from Glycine max soybean (Glycine max (soybean))", "T3 construct": "unrelated negatively charged protein, amine-coupled to the chip", "T3 sequence (P01070 25-205)": "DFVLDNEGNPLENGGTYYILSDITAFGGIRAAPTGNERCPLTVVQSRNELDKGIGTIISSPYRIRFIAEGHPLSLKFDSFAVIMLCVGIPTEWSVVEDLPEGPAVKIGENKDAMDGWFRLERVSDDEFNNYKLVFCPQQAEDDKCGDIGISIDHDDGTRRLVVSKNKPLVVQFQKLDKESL", "experiment": "SPR, 1 µM binder over immobilized trypsin inhibitor", "experimental": "as §4, §5"}, "[4]": {"target": "T4, Human B7H1 (human, UniProt Q9NZQ7 20-239)", "T4 construct": "also called HuB7H1; huB7-H1", "T4 sequence (Q9NZQ7 other isoform, or with tags, fused parts or gaps limits assumed)": "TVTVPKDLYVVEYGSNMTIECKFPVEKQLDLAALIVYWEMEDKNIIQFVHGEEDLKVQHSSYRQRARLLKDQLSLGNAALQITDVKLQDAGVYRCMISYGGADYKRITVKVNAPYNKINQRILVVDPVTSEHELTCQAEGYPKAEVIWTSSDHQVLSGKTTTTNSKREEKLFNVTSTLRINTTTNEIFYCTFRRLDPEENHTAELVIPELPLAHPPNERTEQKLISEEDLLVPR", "experiment": "SPR, binder captured on Protein A/G, HuB7H1 analyte", "experimental": "(§6) To determine the affinity of human and cyno B7H6 and human B7H1 to B7H6/CD3 binding proteins, the experiment was performed on a Biacore™ 8K instrument (GE Healthcare Life Sciences). Briefly, the B7H6/CD3 binding protein was captured via Protein A/G. The running buffer for this experiment and all serial dilutions were prepared in HBS-EP+. The CM5 sensor chip was activated with an equal mixture of EDC/NHS across both flow cells for 420 s at a flow rate of 10 μL/min and immobilized with recombinant Protein A/G (50 μg/ml in 10 mM NaOAc, pH 4.5) across all flow cells for 420 s at a flow rate of 10 μL/min resulting in about 2500 RU of Protein A/G on the surface. The sensor chip was deactivated with 1M ethanolamine-HCl across all flow cells for 420 s at a flow rate of 10 μL/min.\nas §1, §2"}, "[5]": {"target": "T1, Cyno B7H6-His", "experiment": "SPR, binder captured on Protein A/G, B7H6 analyte", "experimental": "as §6, §1, §2"}, "[6]": {"target": "T5, Human CD3 E+G HuFc-6xHis (human)", "T5 construct": "also called HuCD3E+G-hFc; huCD3", "T5 sequence (chain, as listed by the source limits assumed)": "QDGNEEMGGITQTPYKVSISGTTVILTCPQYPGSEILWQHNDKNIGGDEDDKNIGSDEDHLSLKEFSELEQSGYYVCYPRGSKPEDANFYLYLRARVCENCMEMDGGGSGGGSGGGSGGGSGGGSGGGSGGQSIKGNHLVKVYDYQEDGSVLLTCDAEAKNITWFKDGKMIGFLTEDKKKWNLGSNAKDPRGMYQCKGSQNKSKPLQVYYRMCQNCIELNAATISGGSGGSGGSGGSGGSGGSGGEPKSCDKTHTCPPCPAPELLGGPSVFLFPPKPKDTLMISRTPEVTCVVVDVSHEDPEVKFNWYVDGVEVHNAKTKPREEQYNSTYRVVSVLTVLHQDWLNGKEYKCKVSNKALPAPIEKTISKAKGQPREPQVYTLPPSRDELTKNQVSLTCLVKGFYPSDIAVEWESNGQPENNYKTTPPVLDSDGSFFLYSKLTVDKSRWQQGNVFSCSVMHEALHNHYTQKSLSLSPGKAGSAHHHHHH", "experiment": "SPR, CD3E+G-hFc immobilized, binder analyte", "experimental": "To determine the affinity of the B7H6/CD3 binding protein to human and cyno CD3E+G-hFc, the experiment was performed on a Bio-Rad ProteOn™ XPR36 instrument. Briefly, HuCD3E+G-hFc and CyCD3E+G were amine-coupled on a ProteOn™ GLM sensor chip (Bio-Rad) and the B7H6/CD3 binding protein was flowed over the immobilized surface. The running buffer for this experiment and all serial dilutions were prepared in HBS-EP+. The GLM sensor chip was normalized according to Bio-Rad's recommendations. The sensor chip was activated with an equal mixture of EDC/s-NHS in the horizontal direction for 300 s at a flow rate of 30 μL/min HuCD3E+G-hFc was immobilized in the vertical direction at 0.4 μg/mL, 0.2 μg/mL and 0.1 μg/mL in 10 mM acetate pH 4.5 to L1, L2 and L3, respectively, for 300 s at a flow rate of 30 μL/min resulting in about 100 RU of HuCD3E+G-hFc on L1, 40 RU of HuCD3E+G-hFc on L2 and 0 RU of HuCD3E+G-hFc on L3. CyCD3E+G-hFc was immobilized in the vertical direction at 0.4 μg/mL, 0.2 μg/mL and 0.1 μg/mL in 10 mM acetate pH 4.5 to L4, L5 and L6, respectively, for 300 s at a flow rate of 30 μL/min resulting in about 385 RU of […], 170 RU of CyCD3E+G-hFc on L5 and 50 RU of CyCD3E+G-hFc on L6. The sensor chip was deactivated with 1M ethanolamine-HCl in the horizontal direction for 300 s at a flow rate of 30 μL/min.\nas §3\nThe interspot (interactions with sensor surface) and blank (HBS-EP+ or 0 nM analyte) were subtracted from the raw data."}}}
{"binder": "B7H6#13/CD3#1 (bispecific antibody, human IgG1, kappa, lambda, L234A L235A, scFab-Fc heterodimer, one B7H6 chain and one CD3 chain) chain 1: DIQMTQSPSSLSASVGDRVTITCKASQNVGKYVAWYQQKPGKAPKSLIYSASNRYDGVPSRFSGSGSGTDFTLTISSLQPEDFTTYYCQQYISYPLTFGAGTKLEIKRTVAAPSVFIFPPSDEQLKSGTASVVCLLNNFYPREAKVQWKVDNALQSGNSQESVTEQDSKDSTYSLSSTLTLSKADYEKHKVYACEVTHQGLSSPVTKSFNRGECGGGGSEGKSSGSGSESKSTEGKSSGSGSESKSTGGGGSQVQLVQSGAEVKKPGASVKVSCKASGYTFTSYWMNWMKQAPGQGLEWMGGIYLNGDSTDYNEKFKGRVTMTVDTSTSTVYMELSSLRSEDTAVYYCTRRGDYFGDFWGQGTLVTVSSASTKGPSVFPLAPSSKSTSGGTAALGCLVKDYFPEPVTVSWNSGALTSGVHTFPAVLQSSGLYSLSSVVTVPSSSLGTQTYICNVNHKPSNTKVDKRVEPKSCDKTHTCPPCPAPEAAGGPSVFLFPPKPKDTLMISRTPEVTCVVVDVSHEDPEVKFNWYVDGVEVHNAKTKPREEQYNSTYRVVSVLTVLHQDWLNGKEYKCKVSNKALPAPIEKTISKAKGQPREPQVYTLPPSREEMTKNQVSLWCLVKGFYPSDIAVEWESNGQPENNYKTTPPVLDSDGSFFLYSKLTVDKSRWQQGNVFSCSVMHEALHNHYTQKSLSLSPG chain 2: EAVVTQEPSLTVSPGGTVTLTCRSSTGAVTTSNYANWVQEKPGQLPRGLIGGTNKRAPWVPARFSGSLLGGKAALTLSGAQPEDEAEYFCALWYSNLWVFGGGTKLTVLGQPKAAPSVTLFPPSSEELQANKATLVCLISDFYPGAVKVAWKADGSPVNTGVETTTPSKQSNNKYAASSYLSLTPEQWKSHRSYSCQVTHEGSTVEKTVAPAECSGGGGSEGKSSGSGSESKSTEGKSSGSGSESKSTGGGGSEVQLVESGGGLVQPGGSLKLSCAASGFTFNTYAMNWVRQAPGKGLEWVARIRSKYNNYATYYADSVKDRFTISRDDSKNTAYLQMNNLKTEDTAVYYCVRHGNFGNSYVSWFAYWGQGTLVTVSAASTKGPSVFPLAPSSKSTSGGTAALGCLVKDYFPEPVTVSWNSGALTSGVHTFPAVLQSSGLYSLSSVVTVPSSSLGTQTYICNVNHKPSNTKVDKRVEPKSCDKTHTCPPCPAPEAAGGPSVFLFPPKPKDTLMISRTPEVTCVVVDVSHEDPEVKFNWYVDGVEVHNAKTKPREEQYNSTYRVVSVLTVLHQDWLNGKEYKCKVSNKALPAPIEKTISKAKGQPREPQVYTLPPSREEMTKNQVSLSCAVKGFYPSDIAVEWESNGQPENNYKTTPPVLDSDGSFFLVSKLTVDKSRWQQGNVFSCSVMHEALHNRFTQKSLSLSPG", "values": [{"measurement": "cy/hu B7-H6", "setting": "[1]", "result": 1.5}, {"measurement": "Non-specific binding (RU)", "setting": "[2]", "result": 7.2, "unit": "RU"}, {"measurement": "Non-specific binding (RU)", "setting": "[3]", "result": 30.6, "unit": "RU"}, {"measurement": "binding result", "setting": "[4]", "result": "no binding (tested: 1 µM)"}, {"measurement": "Kd", "setting": "[5]", "result": 4.6, "unit": "nM"}, {"measurement": "Kd", "setting": "[6]", "result": 4.1, "unit": "nM"}]}
{"binder": "B7H6#14/CD3#1 (bispecific antibody, human IgG1, kappa, lambda, L234A L235A, scFab-Fc heterodimer, one B7H6 chain and one CD3 chain) chain 1: DIQMTQSPSSLSASVGDRVTITCKASQNVGKYVAWYQQKPGKAPKSLIYSASNRYDGVPSRFSGSGSGTDFTLTISSLQPEDFATYFCQQYISYPLTFGAGTKLEIKRTVAAPSVFIFPPSDEQLKSGTASVVCLLNNFYPREAKVQWKVDNALQSGNSQESVTEQDSKDSTYSLSSTLTLSKADYEKHKVYACEVTHQGLSSPVTKSFNRGECGGGGSEGKSSGSGSESKSTEGKSSGSGSESKSTGGGGSQVQLVQSGAEVKKPGASVKVSCKASGYTFTNYWMNWMKQAPGQGLEWIGGIYLNGDSTDYNEKFKGKVTMTVDTSTSTVYMELSSLRSEDTAVYYCTRRGDYFGDFWGQGTLVTVSSASTKGPSVFPLAPSSKSTSGGTAALGCLVKDYFPEPVTVSWNSGALTSGVHTFPAVLQSSGLYSLSSVVTVPSSSLGTQTYICNVNHKPSNTKVDKRVEPKSCDKTHTCPPCPAPEAAGGPSVFLFPPKPKDTLMISRTPEVTCVVVDVSHEDPEVKFNWYVDGVEVHNAKTKPREEQYNSTYRVVSVLTVLHQDWLNGKEYKCKVSNKALPAPIEKTISKAKGQPREPQVYTLPPSREEMTKNQVSLWCLVKGFYPSDIAVEWESNGQPENNYKTTPPVLDSDGSFFLYSKLTVDKSRWQQGNVFSCSVMHEALHNHYTQKSLSLSPG chain 2: EAVVTQEPSLTVSPGGTVTLTCRSSTGAVTTSNYANWVQEKPGQLPRGLIGGTNKRAPWVPARFSGSLLGGKAALTLSGAQPEDEAEYFCALWYSNLWVFGGGTKLTVLGQPKAAPSVTLFPPSSEELQANKATLVCLISDFYPGAVKVAWKADGSPVNTGVETTTPSKQSNNKYAASSYLSLTPEQWKSHRSYSCQVTHEGSTVEKTVAPAECSGGGGSEGKSSGSGSESKSTEGKSSGSGSESKSTGGGGSEVQLVESGGGLVQPGGSLKLSCAASGFTFNTYAMNWVRQAPGKGLEWVARIRSKYNNYATYYADSVKDRFTISRDDSKNTAYLQMNNLKTEDTAVYYCVRHGNFGNSYVSWFAYWGQGTLVTVSAASTKGPSVFPLAPSSKSTSGGTAALGCLVKDYFPEPVTVSWNSGALTSGVHTFPAVLQSSGLYSLSSVVTVPSSSLGTQTYICNVNHKPSNTKVDKRVEPKSCDKTHTCPPCPAPEAAGGPSVFLFPPKPKDTLMISRTPEVTCVVVDVSHEDPEVKFNWYVDGVEVHNAKTKPREEQYNSTYRVVSVLTVLHQDWLNGKEYKCKVSNKALPAPIEKTISKAKGQPREPQVYTLPPSREEMTKNQVSLSCAVKGFYPSDIAVEWESNGQPENNYKTTPPVLDSDGSFFLVSKLTVDKSRWQQGNVFSCSVMHEALHNRFTQKSLSLSPG", "values": [{"measurement": "cy/hu B7-H6", "setting": "[1]", "result": 5.9}, {"measurement": "Non-specific binding (RU)", "setting": "[2]", "result": 8.1, "unit": "RU"}, {"measurement": "Non-specific binding (RU)", "setting": "[3]", "result": 32.7, "unit": "RU"}, {"measurement": "binding result", "setting": "[4]", "result": "no binding (tested: 1 µM)"}, {"measurement": "Kd", "setting": "[5]", "result": 0.6, "unit": "nM"}, {"measurement": "Kd", "setting": "[6]", "result": 4.2, "unit": "nM"}]}
